Changes are numbered by the printed parent chain. Numbers in names are those of the source.
T1: Suc-AAP-Ala-pNA
T1 sequence (peptide, N-terminal Suc; C-terminal pNA): AAPA

T2: Suc-AAP-Leu-pNA
T2 sequence (peptide, N-terminal Suc; C-terminal pNA): AAPL

T3: Z-GPR-pNA
T3 sequence (peptide, N-terminal Z; C-terminal pNA): GPR

B1: crab collagenase D226G/G189D (enzyme)
chain: IVGGVEAVPNSWPHQAALFIDDMYFCGGSLISPEWILTAAHCMDGAGFVDVVLGAHNIREDEATQVTIQSTDFTVHENYNSFVISNDIAVIRLPSPVTLTAAIATVGLPSTDVGVGTVVTPTGWGLPSDSALGISDVLRQVDVPIMSNADCDAVYGIVTDGNICIDSTGGKDTCNGDSGGPLNYNGLTYGITSFGAAAGCEAGYPGAFTRVTYFLDWIQTQTGITP
B2: crab collagenase D226G (enzyme)
chain: B1 chain with D172G
B3: recombinant crab serine collagenase 1 (mature, wild type) (enzyme)
chain: B1 chain with D172G, G206D

Assays:
Suc-AAP-Ala-pNA = target: T1, Suc-AAP-Ala-pNA
Suc-AAP-Leu-pNA = target: T2, Suc-AAP-Leu-pNA
Z-GPR-pNA = target: T3, Z-GPR-pNA
[1] = target: bovine calf skin collagen (type I collagen) (bovine) (UniProt P02453)

Binder	kcat /Km (Suc-AAP-Ala-pNA) [M⁻¹ s⁻¹]	kcat /Km (Suc-AAP-Arg-pNA) [M⁻¹ s⁻¹]	kcat /Km (Suc-AAP-Gln-pNA) [M⁻¹ s⁻¹]	kcat /Km (Suc-AAP-Leu-pNA) [M⁻¹ s⁻¹]	kcat /Km (Suc-AAP-Lys-pNA) [M⁻¹ s⁻¹]	kcat /Km (Suc-AAP-Met-pNA) [M⁻¹ s⁻¹]	kcat /Km (Suc-AAP-Orn-pNA) [M⁻¹ s⁻¹]	kcat /Km (Suc-AAP-Phe-pNA) [M⁻¹ s⁻¹]	kcat /Km (Z-GPR-pNA) [M⁻¹ s⁻¹]	collagen cleavage (3/4, 1/4 fragmentation pattern) [1] [%]
B1	867	917000	5500	51700	23300	23300	4800	23300	14500	
B2	317	48300	5500	80000	400	48300	383	115000	367	
B3	2170	1.33e+06	18300	152000	60000	70000	7830	158000	7170	> 50

From US5747322
